We go through one molecule from publication PMC9963953, “Structures of MPND Reveal the Molecular Recognition of Nucleosomes”.

This data set concerns the target T1, MPND 54-163 (RAMA domain, crystal) (Mus musculus, UniProt Q3TV65 54-163).
T1 sequence: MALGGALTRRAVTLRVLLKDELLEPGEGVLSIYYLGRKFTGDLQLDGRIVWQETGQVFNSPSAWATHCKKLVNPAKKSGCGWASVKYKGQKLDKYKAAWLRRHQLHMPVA
The data set can be described thus: X-ray crystallography (2.47 A); EMSA: 20 mM HEPES pH 7.2, 100 mM NaCl, 2 mM DTT, 0.1% NP-40, 20 uM protein, 5 uM DNA, on ice; MST: 20 mM HEPES pH 7.2, 100 mM NaCl, 0.1% NP-40, 22 C; pull-down: 20 mM HEPES pH 7.2, 0.15 M NaCl, 1 mM DTT, 4 C. To be noted: protein: recombinant; tags: tag removed with TEV; 18 bp, 5' overhangs 1 nt. (In general: A gel shift assay detects complexes by their altered migration in electrophoresis.)

B1: crystallization dsDNA (dsDNA)
DNA 1: CAGCAACAGAAGAGGATCT
DNA 2: GAGATCCTCTTCTGTTGCT
B1: the binding result is “binds”.
